B1: P19 (peptide, listed as Homo sapiens)
chain: WTPIPVLTRWPLPHPPPWRRATSCRMARSSPSATSGSSVRRRCSSLPSWVWNLAASTRPRSTPS

Target: HLA-B*07:02 (Homo sapiens, UniProt P01889)
Assay: In vitro binding of neoantigens to class I MHC (UV peptide exchange, HLA class I ELISA)
Details: 100% = same binding as positive control peptide
Experimental: The 9 mer peptides identified by bioinformatics analysis were analyzed for their binding propensities to 6 common HLA class I alleles (HLA-A*01:01, A*02:01, A*03:01, A*24:02, B*07:02, B*08:01). The principle of the method is briefly described below and consists of two parts, one involving exchange of peptide with a positive control induced by Ultraviolet (UV) radiation, and the second is an enzyme immunoassay to detect stable HLA-peptide and empty HLA complexes.
HLA-bound peptides are critical for the stability of the HLA complex. A conditional HLA class I complex was stabilized by an UV-labile peptide utilizing a different peptide (Pos) for each HLA (Pos: HLA-A*01:01: […](SEQ ID NO: 409), HLA-A*02:01: […] (SEQ ID NO: 410), HLA-A*03:01: […] (SEQ ID NO: 411), HLA-A*24:02: […] (SEQ ID NO: 412), HLA-B*07:02: […] (SEQ ID NO: 413), HLA-B*08:01: […] (SEQ ID NO: 414), which could be cleaved by UV irradiation when bound to the HLA molecule. Upon cleavage, the resulting peptide fragments dissociated from the HLA class I complex since their length was insufficient to bind stably to HLA. Under the conditions in which peptide cleavage was performed (neutral pH, on melting ice), the peptide-free HLA complex remained stable.
The exchange efficiency between the peptide of interest and Pos was analyzed using an HLA class I ELISA. The combined technologies allowed the identification of ligands for an HLA molecule of interest which are potentially immunogenic.
Exchange control peptide Pos was a high affinity binder to the relevant HLA class I allele while exchange control peptide Neg was a non-binder. The UV control represented UV-irradiation of conditional HLA class I complex in the absence of a rescue peptide.
The HLA class I ELISA is an enzyme immunoassay based on the detection of beta2-microglobulin (B2M) of (peptide-stabilized) HLA class I complexes. To this end streptavidin was bound onto polystyrene microtiter wells. After washing and blocking, HLA complex present in exchange reaction mixtures or ELISA controls was captured by the streptavidin on the microtiter plate via its biotinylated heavy chain. Non-bound material was removed by washing. Subsequently, horseradish peroxidase (HRP)-conjugated antibody to human B2M was added. The HRP-conjugated antibody binds only to an intact HLA complex present in the microtiter well because unsuccessful peptide exchange results in disintegration of the original UV-sensitive HLA complex upon UV illumination. In the latter case B2M was removed during the washing step. After removal of non-bound HRP conjugate by washing, a substrate solution was added to the wells. A coloured product formed in proportion to the amount of intact HLA complex present in the samples. After the reaction was terminated by the addition of a stop solution, absorbance was measured in a microtiter plate reader. The absorbance was normalized to the absorbance of an exchange control peptide (represents 100%). Suboptimal HLA binding of peptides with a moderate to low affinity for HLA class I molecules can also be detected by this ELISA technique (Rodenko, B et al. (2006) Nature Protocols 1: 1120-32).
Peptides that had 10% or greater exchange efficiency in one of the 6 HLA alleles were considered for further immunogenicity testing and analysis.
Binding of select neoepitopes to HLA-A*01:01, HLA-A*02:01, HLA-A*03:01, HLAA*24:02, HLAAB*07:02 and HLA-B*08:01 was evaluated using the assay described in Example 1. […] As a criterion for further evaluation, peptides with an exchange rate of at least 10% with the corresponding Pos peptide for at least one of the 6 HLA alleles that we considered for further evaluation. The exchange rates with the allele specific Pos peptides, of the 24 neoantigens so identified are summarized below in Table 17. Higher percentages correspond to stronger binding to the HLA allele. […]

| Molecule | Exchange rate with allele specific Pos peptide, HLA-B*07:02 |
| --- | --- |
| P60 (CYLRRQKRLKCEKQPGA; listed as Homo sapiens) [Peptide P60] | 6.1% |
| YEAGMTLGEKFRVGNCKHLKMTRP (listed as Homo sapiens) [Neoantigen P82] | 12.9% |
| P98: neoantigen 9 mer fragment used for PBMC stimulation (FIG. 5D) (IVWWCPMSR; listed as Homo sapiens) [Neoantigen P98] | 6.7% |
| P56 (PKSEVRAKCKFSILNAK; listed as Homo sapiens) [Peptide P56] | 82.5% |
| P46 (DDRNTFDIVWWCPMSRLRLALTVPPSTTTTCVTVPAWAA; listed as Homo sapiens) [Peptide P46] | 64.8% |
| P73 (DSSGNLLERNSFEVRV; listed as Homo sapiens) [Peptide P73] | 8.7% |
| P97 (GYLRMQGLMAQRLLLR; listed as Homo sapiens) [Peptide P97] | 7% |
| YEAGMTLGGKILFFLFLLLPLSPFSLIF (listed as Homo sapiens) [Neoantigen P87] | 5% |
| B1 | 91.3% |

— patent US12295997B2, “Prostate neoantigens and their uses” (Janssen Biotech, Inc., priority 2020, dated 2025)
